# Experimental data from patent US20150065381A1.
# Values joined by “and” are separate entries in the source; they are usually repeats but may differ in a detail not shown here. Equal entries are not always repeated.
# Assays:
# [1] = target: HIV-1 16055 envelope (HIV-1); experiment: capture ELISA, plate 1, mAb 7.5 ug/ml
# [2] = target: HIV-1 JRCSF envelope (HIV-1) (UniProt P20871); experiment: capture ELISA, plate 1, mAb 7.5 ug/ml
# [3] = target: HIV-1 JRFL envelope (HIV-1); experiment: capture ELISA, plate 1, mAb 7.5 ug/ml
# [4] = target: HIV-1 envelope clone BF-002.c05 (multiclade gp160 clone panel) (HIV-1); experiment: capture ELISA, plate 1, mAb 7.5 ug/ml
# [5] = target: HIV-1 envelope clone BF-002.c08 (multiclade gp160 clone panel) (HIV-1); experiment: capture ELISA, plate 1, mAb 7.5 ug/ml
# [6] = target: HIV-1 envelope clone F1-002.c11 (multiclade gp160 clone panel) (HIV-1); experiment: capture ELISA, plate 1, mAb 7.5 ug/ml
# [7] = target: HIV-1 envelope clone F1-002.c16 (multiclade gp160 clone panel) (HIV-1); experiment: capture ELISA, plate 1, mAb 7.5 ug/ml
# [8] = target: HIV-1 envelope clone G-011.c02 (multiclade gp160 clone panel) (HIV-1); experiment: capture ELISA, plate 1, mAb 7.5 ug/ml
# [9] = target: HIV-1 envelope clone G-011.c05 (multiclade gp160 clone panel) (HIV-1); experiment: capture ELISA, plate 1, mAb 7.5 ug/ml
# [10] = target: HIV-1 envelope of gp160 clone AG-010.c11 (HIV-1); experiment: capture ELISA, plate 1, mAb 7.5 ug/ml
# [11] = target: HIV-1 envelope of gp160 clone AG-010.c14 (HIV-1); experiment: capture ELISA, plate 1, mAb 7.5 ug/ml
# [12] = target: HIV-1 envelope of gp160 clone B-Acute-008.c11 (HIV-1); experiment: capture ELISA, plate 1, mAb 7.5 ug/ml
# [13] = target: HIV-1 envelope of gp160 clone B-Acute-009-c08 (HIV-1); experiment: capture ELISA, plate 1, mAb 7.5 ug/ml
# [14] = target: HIV-1 envelope of gp160 clone B-Acute-010.c08 (HIV-1); experiment: capture ELISA, plate 1, mAb 7.5 ug/ml
# [15] = target: HIV-1 envelope of gp160 clone B-Acute-010.c09 (HIV-1); experiment: capture ELISA, plate 1, mAb 7.5 ug/ml
# [16] = target: HIV-1 envelope of gp160 clone B-Chronic-014.c02 (HIV-1); experiment: capture ELISA, plate 1, mAb 7.5 ug/ml
# [17] = target: HIV-1 16055 envelope (HIV-1); experiment: capture ELISA, plate 2, mAb 2.5 ug/ml
# [18] = target: HIV-1 envelope of gp160 clone AG-010.c11 (HIV-1); experiment: capture ELISA, plate 2, mAb 2.5 ug/ml
# [19] = target: HIV-1 envelope of gp160 clone B-Acute-008.c11 (HIV-1); experiment: capture ELISA, plate 2, mAb 2.5 ug/ml
# [20] = target: HIV-1 envelope of gp160 clone B-Acute-009-c08 (HIV-1); experiment: capture ELISA, plate 2, mAb 2.5 ug/ml
# [21] = target: HIV-1 envelope of gp160 clone B-Acute-010.c09 (HIV-1); experiment: capture ELISA, plate 2, mAb 2.5 ug/ml
# [22] = target: HIV-1 16055 envelope (HIV-1); experiment: capture ELISA, plate 2, mAb 7.5 ug/ml
# [23] = target: HIV-1 JRCSF envelope (HIV-1) (UniProt P20871); experiment: capture ELISA, plate 2, mAb 7.5 ug/ml
# [24] = target: HIV-1 JRFL envelope (HIV-1); experiment: capture ELISA, plate 2, mAb 7.5 ug/ml
# [25] = target: HIV-1 envelope clone BF-002.c05 (multiclade gp160 clone panel) (HIV-1); experiment: capture ELISA, plate 2, mAb 7.5 ug/ml
# [26] = target: HIV-1 envelope clone BF-002.c08 (multiclade gp160 clone panel) (HIV-1); experiment: capture ELISA, plate 2, mAb 7.5 ug/ml
# [27] = target: HIV-1 envelope clone F1-002.c11 (multiclade gp160 clone panel) (HIV-1); experiment: capture ELISA, plate 2, mAb 7.5 ug/ml
# [28] = target: HIV-1 envelope clone F1-002.c16 (multiclade gp160 clone panel) (HIV-1); experiment: capture ELISA, plate 2, mAb 7.5 ug/ml
# [29] = target: HIV-1 envelope clone G-011.c02 (multiclade gp160 clone panel) (HIV-1); experiment: capture ELISA, plate 2, mAb 7.5 ug/ml
# [30] = target: HIV-1 envelope clone G-011.c05 (multiclade gp160 clone panel) (HIV-1); experiment: capture ELISA, plate 2, mAb 7.5 ug/ml
# [31] = target: HIV-1 envelope of gp160 clone AG-010.c11 (HIV-1); experiment: capture ELISA, plate 2, mAb 7.5 ug/ml
# [32] = target: HIV-1 envelope of gp160 clone AG-010.c14 (HIV-1); experiment: capture ELISA, plate 2, mAb 7.5 ug/ml
# [33] = target: HIV-1 envelope of gp160 clone B-Acute-008.c11 (HIV-1); experiment: capture ELISA, plate 2, mAb 7.5 ug/ml
# [34] = target: HIV-1 envelope of gp160 clone B-Acute-009-c08 (HIV-1); experiment: capture ELISA, plate 2, mAb 7.5 ug/ml
# [35] = target: HIV-1 envelope of gp160 clone B-Acute-010.c08 (HIV-1); experiment: capture ELISA, plate 2, mAb 7.5 ug/ml
# [36] = target: HIV-1 envelope of gp160 clone B-Acute-010.c09 (HIV-1); experiment: capture ELISA, plate 2, mAb 7.5 ug/ml
# [37] = target: HIV-1 envelope of gp160 clone B-Chronic-014.c02 (HIV-1); experiment: capture ELISA, plate 2, mAb 7.5 ug/ml
substance,measurement,setting,value
PGT151 (antibody),ELISA OD,[1],0.08 OD and 0.078 OD
same,ELISA OD,[2],0.073 OD and 0.086 OD
same,ELISA OD,[3],0.088 OD and 0.08 OD
same,ELISA OD,[4],0.286 OD
same,ELISA OD,[5],0.087 OD
same,ELISA OD,[6],0.087 OD
same,ELISA OD,[7],0.105 OD
same,ELISA OD,[8],0.121 OD
same,ELISA OD,[9],0.089 OD
same,ELISA OD,[10],0.081 OD
same,ELISA OD,[11],0.148 OD
same,ELISA OD,[12],0.256 OD
same,ELISA OD,[13],0.11 OD
same,ELISA OD,[14],0.206 OD
same,ELISA OD,[15],0.081 OD
same,ELISA OD,[16],0.525 OD
same,ELISA OD,[17],0.082 OD and 0.076 OD
same,ELISA OD,[18],0.08 OD
same,ELISA OD,[19],0.266 OD
same,ELISA OD,[20],0.128 OD
same,ELISA OD,[21],0.095 OD
same,ELISA OD,[22],0.119 OD and 0.118 OD
same,ELISA OD,[23],0.098 OD and 0.121 OD
same,ELISA OD,[24],0.138 OD and 0.149 OD
same,ELISA OD,[25],0.253 OD
same,ELISA OD,[26],0.102 OD
same,ELISA OD,[27],0.135 OD
same,ELISA OD,[28],0.138 OD
same,ELISA OD,[29],0.197 OD
same,ELISA OD,[30],0.125 OD
same,ELISA OD,[31],0.116 OD
same,ELISA OD,[32],0.191 OD
same,ELISA OD,[33],0.209 OD
same,ELISA OD,[34],0.191 OD
same,ELISA OD,[35],0.21 OD
same,ELISA OD,[36],0.121 OD
same,ELISA OD,[37],0.462 OD
